From US20250346679A1 (INVOX PHARMA, published 2025)

How the values were obtained:
[1] = biological target: Human FcRn (Acro Biosystems, FCM-H5286) (human, UniProt P55899 24-297; P61769 21-119); experiment: SPR, antibody immobilised, FcRn in flow, pH 6.0, steady state affinity; pH 6.0
Excerpt: (§1) The neonatal Fc receptor (FcRn) binding is critical for antibody recycling (Martins et al., 2016). […] G1-AA/HeID1.3 was included as an isotype control IgG control lacking mutations in the CH3 domain.
(§2) Briefly, mAb² were individually coated on flow cell 2, 3 and 4 of Series S Sensor Chip CM5 (GE Healthcare, BR100530) to achieve a response of approximately 1000 RU. Flow cell 1 was activated/deactivated but left blank as a reference. Human FcRn (Acro Biosystems, FCM-H5286) or mouse FcRn (R&D systems, 9114-Fc) was dialysed and diluted in MHBS-EP⁺B pH 6.0 or pH 7.4 buffer (10 mM MES, FortéBio, 18-5026; 1×HBS-EP, GE Healthcare, BR100669; 0.1 mg/ml BSA, Sigma, A7906) and injected on flow cell 1, 2, 3 and 4 at 2000-3000 nM with 2-fold dilutions for 1 min at 80 μl/min and then allowed to dissociate in buffer for 3 min. […] Subtracted data (flow cell 2−flow cell 1, flow cell 3−flow cell 1, or flow cell 4−flow cell 1) was analysed using Biacore T200 Evaluation Software 2.0 to identify binding using the model steady state affinity.

[2] = biological target: T1, mouse FcRn (R&D systems, 9114-Fc) (mouse, UniProt Q61559 22-297; P01887 21-119, limits assumed); experiment: as above
T1 sequence (looked up) 1: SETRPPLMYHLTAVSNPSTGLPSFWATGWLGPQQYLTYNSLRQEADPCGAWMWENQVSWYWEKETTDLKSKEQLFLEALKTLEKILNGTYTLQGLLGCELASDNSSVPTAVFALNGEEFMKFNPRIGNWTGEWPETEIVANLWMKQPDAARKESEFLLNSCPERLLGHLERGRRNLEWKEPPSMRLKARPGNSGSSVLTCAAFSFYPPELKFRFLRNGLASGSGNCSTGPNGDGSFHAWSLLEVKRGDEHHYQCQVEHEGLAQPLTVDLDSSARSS
T1 sequence (looked up) 2: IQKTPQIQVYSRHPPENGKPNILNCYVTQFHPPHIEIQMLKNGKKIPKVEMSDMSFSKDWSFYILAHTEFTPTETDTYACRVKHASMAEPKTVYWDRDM
Excerpt: as §1, §2

Kd [1]: 1230 nM | Kd [2]: 160 nM
B1: G1-AA/HeID1.3 (antibody, human IgG1, kappa, L234A L235A)
heavy: not shown
light: DIQMTQSPASLSASVGETVTITCRASGNIHNYLAWYQQKQGKSPQLLVYNAKTLADGVPSRFSGSGSGTQYSLKINSLQPEDFGSYYCQHFWSTPRTFGGGTKLEIKRTVAAPSVFIFPPSDEQLKSGTASVVCLLNNFYPREAKVQWKVDNALQSGNSQESVTEQDSKDSTYSLSSTLTLSKADYEKHKVYACEVTHQGLSSPVTKSFNRGEC
notes: anti-hen egg lysozyme IgG1 with LALA, isotype control
